# Reference: US20040171629
# T1: annexin V, P08758
# T1 chain: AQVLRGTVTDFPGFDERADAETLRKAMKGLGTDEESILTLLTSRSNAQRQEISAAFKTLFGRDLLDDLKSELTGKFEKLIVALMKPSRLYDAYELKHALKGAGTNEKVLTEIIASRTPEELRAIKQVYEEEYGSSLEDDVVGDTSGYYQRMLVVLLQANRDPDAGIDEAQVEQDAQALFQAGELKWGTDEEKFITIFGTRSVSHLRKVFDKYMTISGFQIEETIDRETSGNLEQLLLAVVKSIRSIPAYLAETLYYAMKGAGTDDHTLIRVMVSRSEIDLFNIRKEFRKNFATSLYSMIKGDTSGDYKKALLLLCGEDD
# Experiments:
# [1] = biological target: FITC-labeled, dephosphorylated casein
# annexin V, P08758 = biological target: T1, annexin V, P08758
# [2] = biological target: kidney membrane associated proteins
Protein,"proteolytic activity, fluorescence at 535 nm of Dcasein-FITC [1]","cleavage in human kidney cytoplasmic extract, 2-dimensional gel electrophoresis (annexin V, P08758)","cleavage in human kidney membrane extract, 2-dimensional gel electrophoresis [2]","proteolytic activity, SDS-PAGE with Coomassie Blue staining (β-casein)"
MBP-Omi-(134-458) (protein) AVPSPPPASPRSQYNFIADVVEKTAPAVVYIEILDRHPFLGREVPISNGSGFVVAADGLIVTNAHVVADRRRVRVRLLSGDTYEAVVTAVDPVADIATLRIQTKEPLPTLPLGRSADVRQGEFVVAMGSPFALQNTITSGIVSSAQRPARDLGLPQTNVEYIQTDAAIDFGNSGGPLVNLDGEVIGVNTMKVTAGISFAIPSDRLREFLHRGEKKNSSSGISGSQRRYIGVMMLTLSPSILAELQLREPSFPDVQHGVLIHKVILGSPAHRAGLRPGDVILAIGEQMVQNAEDVYEAVRTQSQLAVQIRRGRETLTLYVTPEVTE,there was a rapid increase in fluorescence for the first 20 min followed by a slower increase for the remaining 10 min of the assay,,,
His-tagged Omi-(134-458) (protein) AVPSPPPASPRSQYNFIADVVEKTAPAVVYIEILDRHPFLGREVPISNGSGFVVAADGLIVTNAHVVADRRRVRVRLLSGDTYEAVVTAVDPVADIATLRIQTKEPLPTLPLGRSADVRQGEFVVAMGSPFALQNTITSGIVSSAQRPARDLGLPQTNVEYIQTDAAIDFGNSGGPLVNLDGEVIGVNTMKVTAGISFAIPSDRLREFLHRGEKKNSSSGISGSQRRYIGVMMLTLSPSILAELQLREPSFPDVQHGVLIHKVILGSPAHRAGLRPGDVILAIGEQMVQNAEDVYEAVRTQSQLAVQIRRGRETLTLYVTPEVTE,,two polypeptides (32 kD and 29 kD) in the human kidney cytoplasmic fraction were specifically cleaved by His-Omi,No proteins were cleaved in the membrane bound fractions,"had substantial activity against β-casein, and after 30 min total degradation of the substrate occurred"
